Measured values from PMC5415106.

T1: Sld3 (protein of Fig 3D; the legend prints 'CDK-phosphorylated Sld2'), P53135
T1 chain: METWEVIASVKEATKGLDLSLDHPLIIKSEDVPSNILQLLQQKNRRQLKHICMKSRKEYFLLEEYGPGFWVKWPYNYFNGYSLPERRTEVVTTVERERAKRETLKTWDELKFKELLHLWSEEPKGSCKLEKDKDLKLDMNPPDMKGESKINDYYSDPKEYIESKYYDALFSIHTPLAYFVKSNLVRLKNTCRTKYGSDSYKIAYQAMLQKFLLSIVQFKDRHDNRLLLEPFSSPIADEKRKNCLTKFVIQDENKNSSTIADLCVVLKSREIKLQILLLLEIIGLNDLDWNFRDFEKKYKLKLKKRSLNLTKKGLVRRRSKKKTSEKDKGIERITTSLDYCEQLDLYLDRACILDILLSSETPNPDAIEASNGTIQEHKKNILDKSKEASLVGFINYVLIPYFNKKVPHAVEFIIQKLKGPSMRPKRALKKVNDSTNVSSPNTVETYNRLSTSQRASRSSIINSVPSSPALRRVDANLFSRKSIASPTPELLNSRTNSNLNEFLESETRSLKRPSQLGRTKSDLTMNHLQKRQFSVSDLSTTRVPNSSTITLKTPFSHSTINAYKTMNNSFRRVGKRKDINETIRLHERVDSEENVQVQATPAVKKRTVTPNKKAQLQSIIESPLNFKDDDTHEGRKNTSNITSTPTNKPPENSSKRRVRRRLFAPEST

T2: PKA-GINS, Q12488
T2 chain 1: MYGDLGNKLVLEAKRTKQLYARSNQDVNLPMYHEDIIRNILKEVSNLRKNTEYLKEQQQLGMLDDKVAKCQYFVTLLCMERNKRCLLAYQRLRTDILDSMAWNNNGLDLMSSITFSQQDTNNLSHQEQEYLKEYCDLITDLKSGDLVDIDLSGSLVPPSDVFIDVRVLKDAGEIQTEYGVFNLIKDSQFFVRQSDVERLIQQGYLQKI
T2 chain 2: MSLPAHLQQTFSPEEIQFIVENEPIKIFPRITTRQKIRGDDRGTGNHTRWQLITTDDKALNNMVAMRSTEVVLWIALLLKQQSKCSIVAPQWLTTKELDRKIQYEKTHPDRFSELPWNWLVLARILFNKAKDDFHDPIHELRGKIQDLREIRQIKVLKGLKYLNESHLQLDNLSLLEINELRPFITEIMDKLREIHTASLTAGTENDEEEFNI
T2 chain 3: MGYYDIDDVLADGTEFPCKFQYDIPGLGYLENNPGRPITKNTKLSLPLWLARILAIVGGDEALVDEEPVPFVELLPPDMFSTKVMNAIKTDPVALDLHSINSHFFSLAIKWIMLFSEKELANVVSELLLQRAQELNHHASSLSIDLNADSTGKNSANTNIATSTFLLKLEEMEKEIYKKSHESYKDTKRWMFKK
T2 chain 4: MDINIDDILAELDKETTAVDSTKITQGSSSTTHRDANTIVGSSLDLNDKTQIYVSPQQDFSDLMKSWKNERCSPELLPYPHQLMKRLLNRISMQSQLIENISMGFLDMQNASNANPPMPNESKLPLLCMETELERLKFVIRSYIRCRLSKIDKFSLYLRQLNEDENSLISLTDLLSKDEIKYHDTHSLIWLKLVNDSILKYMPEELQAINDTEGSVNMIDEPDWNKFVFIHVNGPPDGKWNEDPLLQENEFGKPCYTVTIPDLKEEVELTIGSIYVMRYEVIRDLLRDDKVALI

T3: GST-Dpb11-wild-type, P47027
T3 chain: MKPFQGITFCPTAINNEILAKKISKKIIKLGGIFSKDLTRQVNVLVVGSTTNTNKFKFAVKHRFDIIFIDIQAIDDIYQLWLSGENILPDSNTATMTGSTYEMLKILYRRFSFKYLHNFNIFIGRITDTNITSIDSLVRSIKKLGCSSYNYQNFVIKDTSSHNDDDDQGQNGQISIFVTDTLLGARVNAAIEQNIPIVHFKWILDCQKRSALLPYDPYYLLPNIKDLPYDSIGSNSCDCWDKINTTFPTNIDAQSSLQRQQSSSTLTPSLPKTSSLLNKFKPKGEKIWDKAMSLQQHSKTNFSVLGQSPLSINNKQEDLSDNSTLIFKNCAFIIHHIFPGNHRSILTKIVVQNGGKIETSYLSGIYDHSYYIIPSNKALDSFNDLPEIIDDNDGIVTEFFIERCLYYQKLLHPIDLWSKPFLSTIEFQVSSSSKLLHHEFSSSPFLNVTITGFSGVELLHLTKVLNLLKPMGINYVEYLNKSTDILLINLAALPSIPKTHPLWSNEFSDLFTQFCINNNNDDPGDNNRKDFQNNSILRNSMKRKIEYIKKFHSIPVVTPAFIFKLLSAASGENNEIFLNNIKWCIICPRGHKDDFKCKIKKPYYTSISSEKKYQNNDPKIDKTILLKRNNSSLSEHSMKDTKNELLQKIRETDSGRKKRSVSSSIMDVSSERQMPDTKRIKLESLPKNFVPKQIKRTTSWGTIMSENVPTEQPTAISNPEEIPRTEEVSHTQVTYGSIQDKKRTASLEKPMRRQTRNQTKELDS


Columns and labels:
Assay in all cases: GST pull-down, phosphorimaging
Conditions in all cases: chain shown with the change, 10 pmoles GST-Dpb11, read off a plot
[1] = target: T1, Sld3 (protein of Fig 3D; the legend …)
[2] = target: T2, PKA-GINS, Q12488
[3] = target: T3, GST-Dpb11-wild-type, P47027

| Binder | response ([1]; 1 pmole CDK-Sld3 input, parent: est. 0.34) | response ([1]; 3 pmoles CDK-Sld3 input, parent: est. 0.60) | response ([1]; 10 pmoles CDK-Sld3 input, parent: est. 1.5) | response ([2]; 1 pmole GINS input, parent: est. 0.60) | response ([2]; 3 pmoles GINS input, parent: est. 1.4) | response ([2]; 10 pmoles GINS input, parent: est. 2.5) | response ([3]; 1 pmole Sld2T84D input) | response ([3]; 3 pmoles Sld2T84D input) | response ([3]; 10 pmoles Sld2T84D input) |
| --- | --- | --- | --- | --- | --- | --- | --- | --- | --- |
| GST-Dpb11-wild-type, P47027 K463E; K469E; R538E; K549E (protein) MKPFQGITFCPTAINNEILAKKISKKIIKLGGIFSKDLTRQVNVLVVGSTTNTNKFKFAVKHRFDIIFIDIQAIDDIYQLWLSGENILPDSNTATMTGSTYEMLKILYRRFSFKYLHNFNIFIGRITDTNITSIDSLVRSIKKLGCSSYNYQNFVIKDTSSHNDDDDQGQNGQISIFVTDTLLGARVNAAIEQNIPIVHFKWILDCQKRSALLPYDPYYLLPNIKDLPYDSIGSNSCDCWDKINTTFPTNIDAQSSLQRQQSSSTLTPSLPKTSSLLNKFKPKGEKIWDKAMSLQQHSKTNFSVLGQSPLSINNKQEDLSDNSTLIFKNCAFIIHHIFPGNHRSILTKIVVQNGGKIETSYLSGIYDHSYYIIPSNKALDSFNDLPEIIDDNDGIVTEFFIERCLYYQKLLHPIDLWSKPFLSTIEFQVSSSSKLLHHEFSSSPFLNVTITGFSGVELLHLTEVLNLLEPMGINYVEYLNKSTDILLINLAALPSIPKTHPLWSNEFSDLFTQFCINNNNDDPGDNNRKDFQNNSILENSMKRKIEYIEKFHSIPVVTPAFIFKLLSAASGENNEIFLNNIKWCIICPRGHKDDFKCKIKKPYYTSISSEKKYQN | 0.29 pmol | 0.65 pmol | 1.4 pmol | 0.65 pmol | 1.4 pmol | 2.6 pmol |  |  |  |
| Sld2 T84D (protein) MYSFELDKLKIELKTWEHDFIDKNKREPTRDDIKSLRTVRQMYKQYSTLKKKQSLQRQKVDTQESVELPAHKKDHDEVVEIGPDPQVYGKAISIFDMNLSPIKPIYMTFTNNIDVNNDNSKTISNESSPRKTILLKSSPADRTLVAEPISSVKRQLNFQMLNASSTRTPTSSPCKNRNGKLVEIKKCSPTINPPLESGKPSGYYGPNSPLKLDEENIHLNISLNSSTKRRLQIAYPSLQKTPSKDQADISTSFSPSPLIRRPLTKSLIELAREHTEIVKEFGVLQEEDIEEEEEGEEGENGYDEKNHEDDFGLEDELIRPKVVKDIFQEDDDNDDSQAREDTFIRKRPKRRKVIRRLRDNDPETETAGFERDVHKELVKLKRRKVAEFLGSTSQISDTEFEHDPEASSGVVSSEQKPTAKRKGRKKYNLVSNNFRRLKLPKKNRFSNGRWGRR |  |  |  |  |  |  | 0.28 pmol | 0.64 pmol | 1.6 pmol |
